In patent publication US12331073B2, “Preparation of biologically active complexes” (priority 2017, dated 2025):

Legend:
tumour cells = assay: Inherent tumoricidal effect of oleate salts
[1] = test system: Human lung carcinoma cells (A549, ATCC); assay: Cell death assay (ATPlite, PrestoBlue, trypan blue exclusion); type: cell-based
Experimental: Human lung carcinoma cells (A549, ATCC) were cultured in RPMI-1640 with non-essential amino acids (1:100), 1 mM sodium pyruvate, 50 μg/ml Gentamicin and 5-10% fetal calf serum (FCS) at 37° C., 5% CO2. For cell death experiment, cells were grown on 96-well plate (2×10^4/well, Tecan Group Ltd) overnight. Cells were incubated with biologically active complexes obtained in Example 1 at dosages equivalent to either 7, 21 or 35 μM peptide in serum-free RPMI-1640 at 37° C. FCS was added after 1 hour. Cell death was quantified 3 hours after peptide-oleate treatment by three biochemical methods including 1) estimation of cellular ATP levels using luminescence based ATPlite™ kit (Perkin Elmer) 2) Presto Blue fluorescence staining (Invitrogen, A13262) and 3) trypan blue exclusion assay. Fluorescence and luminescence were measured using a microplate reader (Infinite F200, Tecan).

glioblastoma xenograft = conditions: rat glioblastoma xenograft model; cited from earlier work
skin papillomas = conditions: topical administration, placebo controlled clinical study; cited from earlier work
bladder cancer [2] = conditions: murine bladder cancer model; cited from earlier work
bladder cancer [3] = conditions: local instillations; cited from earlier work
tumor cells = conditions: early in vitro experiments; cited from earlier work
cells = conditions: Vukojevic et al. Langmuir 2010; cited from earlier work

In the case of CCCCCCCC/C=C\CCCCCCCC(=O)[O-].[Na+] [sodium oleate], the inherent tumoricidal effect (tumour cells) is reported as “appear to have some inherent tumoricidal effect”.

B1: BAMLET: bovine alpha-lactalbumin (700 μM) and sodium oleate (3.5 mM) dissolved in Phosphate Buffered Saline by vortexing (protein, UniProt P00711 20-142, looked up)
Alpha-lactalbumin: EQLTKCEVFRELKDLKGYGGVSLPEWVCTTFHTSGYDTQAIVQNNDSTEYGLFQINNKIWCKDDQNPHSSNICNISCDKFLDDDLTDDIMCVKKILDKVGINYWLAHKALCSEKLDQWLCEKL
modifications: complex with sodium oleate
notes: bovine alpha-lactalbumin (700 μM) and sodium oleate (3.5 mM) dissolved in Phosphate Buffered Saline by vortexing
In the case of B1, the “activity after lyophilisation of the complex” value ([1]; after lyophilisation) is reported as “removed the activity” and the “tumour cell death activity of freshly prepared solution” value ([1]; solution in PBS vortexed at room temperature, FIG. 4) is reported as “biologically active and killed A549 lung carcinoma cells in a dose dependent manner”.

B2: HAMLET (protein, UniProt P00709 20-142, looked up)
Alpha-lactalbumin: KQFTKCELSQLLKDIDGYGGIALPELICTMFHTSGYDTQAIVENNESTEYGLFQISNKLWCKSSQVPQSRNICDISCDKFLDDDITDDIMCAKKILDIKGIDYWLAHKALCTEKLEQWLCEKL
modifications: complex with oleic acid
For B2, the “cell death in healthy brain tissue” value (glioblastoma xenograft) is given as “without evidence of cell death in healthy brain tissue”, the “tumor progression and survival” value (glioblastoma xenograft) is given as “delayed tumor progression and led to increased survival” and the “effect on skin papillomas” value (skin papillomas) is given as “removed or reduced the size of skin papillomas”. For the same molecule, the “therapeutic efficacy in bladder cancer” value (bladder cancer [2]) was “Therapeutic efficacy”, the “tumor cell death in bladder cancer patients” value (bladder cancer [3]) was “caused rapid death of tumor cells but not of healthy tissue surrounding the tumor” and the “anti-tumor activity in vitro” value (tumor cells) was “broad anti-tumor activity with a high degree of tumor selectivity”.

B3: complexes using equine lysozyme and oleic acid: complexes using equine lysozyme and oleic acid (Vukojevic et al.) (protein, UniProt P11376 1-129, looked up)
Lysozyme C, milk isozyme: KVFSKCELAHKLKAQEMDGFGGYSLANWVCMAEYESNFNTRAFNGKNANGSSDYGLFQLNNKWWCKDNKRSSSNACNIMCSKLLDENIDDDISCAKRVVRDPKGMSAWKAWVKHCKDKDLSEYLASCNL
modifications: complex with oleic acid
For B3, the cell death (cells) is listed as “found to produce cell death”.
